Measurements from patent publication US20240059769A1 (BIOLOJIC DESIGN, published 2024).
Residue numbers refer to the chain shown, from its start.

B1: BDG38.125 (antibody, V domains shown)
VH: QMQLVESGGGVVQPGRSLRLSCAASGFEFRTYGMHWVRQAPGKGLEWVAVIWDDGSNTHYADSVKGRFTITRDNSKNTLNLQMNSLRAEDTAVYYCVRAPQWYLTAEAFDLWGQGTMVTVSS
VL: SYVLTQPPSVSVAPGETATITCGGNLIGARLVHWYQQKPGQAPVLVIYDDSDRPSRIPERFSGSNIGNTATLTIERVEEGDEADYYCQVWDYSSDHMVFGGGTKLTVL
notes: IgG1
B2: BDG38.128 (antibody, V domains shown)
VH: B1 VH with R19T, A88V
VL: B1 VL with V3I, R30K, I66S, E75S, R76D, S93Y, S94A, H96T
notes: IgG1
B3: BDG38.117 (antibody, V domains shown)
VH: B1 VH with R19T, A49G, V97A
VL: B1 VL with R30K, R76D, E79A, H96T
notes: IgG1
B4: BDG38.106 (antibody, V domains shown)
VH: B1 VH with R19T, H59V, A88V
VL: B1 VL with V3I, E16Q, A29S, R76D, Y92H, S93Y
notes: IgG1
B5: BDG38.091 (antibody, V domains shown)
VH: B1 VH with R19T, V48L, A49G, D53Y, A88V
VL: B1 VL with V3I, A29S, E75S, R76D, E79A, Y92H, S93Y, D95N, M97Y
notes: IgG1
B6: BDG38.136 (antibody, V domains shown)
VH: B1 VH with V48L, D53Y, L104N, T105S
VL: B1 VL with E16Q, T19R, R30K, R56H, I66S, E75S, E79A, H96T
B7: BDG38.120 (antibody, V domains shown)
VH: B1 VH
VL: B1 VL with V3I, I66S, E75S, R76D, E79A
B8: BDG38.122 (antibody, V domains shown)
VH: B1 VH
VL: B1 VL with V3I, E75S, H96S, M97Y
B9: BDG38.123 (antibody, V domains shown)
VH: B1 VH
VL: B1 VL with V3I, E75S, R76D, E79A, H96T, M97Y
B10: BDG38.130 (antibody, V domains shown)
VH: B1 VH with R19T, E28A, A88V
VL: B1 VL with V3I, E79A, D95N, H96S, M97Y
B11: BDG38.133 (antibody, V domains shown)
VH: B1 VH
VL: B1 VL with V3I, E75S, E79A, H96T, M97Y
B12: BDG38.141 (antibody, V domains shown)
VH: B1 VH
VL: B1 VL with V3I, N25A, A29S, E75S, R76D, S93Y, D95N
B13: BDG38.134 (antibody, V domains shown)
VH: B1 VH with R16Q, V48L, D53Y, L104N, T105S
VL: B1 VL with E16Q, T19R, R56H, I66S, E75S, E79A, S94A, H96T
notes: IgG1
B14: BDG38.124 (antibody, V domains shown)
VH: B1 VH with A49G
VL: B1 VL with V3I, E75S, R76D, E79A, H96T, M97Y
B15: BDG38.143 (antibody, V domains shown)
VH: B1 VH with A49G, N57A, A88V
VL: B1 VL with V3I, E16Q, N25A, E75S, D95N, H96T, M97Y
B16: BDG38.086 (antibody, V domains shown)
VH: B1 VH with A49G, D53Y
VL: B1 VL with E16Q, T19R, I47V, E75S, R76D, D95N, H96T, M97Y
B17: BDG38.142 (antibody, V domains shown)
VH: B1 VH with R19T
VL: B1 VL with V3I, E16Q, R30K, I47V, S93Y, D95H, H96T
B18: BDG38.118 (antibody, V domains shown)
VH: B1 VH with A49G, D53Y, N57A, A88V
VL: B1 VL with V3I, E75S, R76D, M97Y
notes: IgG1
B19: BDG38.127 (antibody, V domains shown)
VH: B1 VH with R19T, A49G, D53Y, N57A, V97A
VL: B1 VL with V3I, R30K, E75S, R76D, E79A, S93Y, H96T, M97Y
notes: IgG1
B20: BDG38.131 (antibody, V domains shown)
VH: B1 VH with R19T
VL: B1 VL with V3I, R30K, E75S, R76D, S93Y, D95N, H96T
notes: IgG1
B21: BDG38.107 (antibody, V domains shown)
VH: B1 VH with R19T, A49G, D53Y
VL: B1 VL with V3I, E16Q, H96S, M97Y
notes: IgG1
B22: BDG38.115 (antibody, V domains shown)
VH: B1 VH with R19T, V48L, A49G, D53Y
VL: B1 VL with V3I, E16Q, I66S, E75S, R76D, D95N, H96T, M97Y
notes: IgG1
B23: BDG38.110 (antibody, V domains shown)
VH: B1 VH
VL: B1 VL with V3I, A18T, T19R, R30K, R76D, E79A, D95N
notes: IgG1
B24: BDG38.098 (antibody, V domains shown)
VH: B1 VH with R19T, H59V, A88V
VL: B1 VL with E16Q, E75S, E79A, H96S
notes: IgG1

These binders were tested against T1, cynomolgus monkey (cyno) TSLP (cynomolgus monkey, UniProt A0A7N9CAT7 29-159) (assay: SPR).
T1 construct: also called cTSLP; cynomolgus TSLP
T1 sequence (A0A7N9CAT7 entry or part of it): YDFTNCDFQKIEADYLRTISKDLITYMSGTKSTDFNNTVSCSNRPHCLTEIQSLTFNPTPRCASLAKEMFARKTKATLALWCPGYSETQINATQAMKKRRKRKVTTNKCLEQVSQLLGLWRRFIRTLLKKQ

Binder | Kd | koff | kon
B1 | 45.2 pM | 0.000119 s⁻¹ | 2.64e+06 M⁻¹ s⁻¹
B2 | 0.0492 pM | 7.62e-08 s⁻¹ | 1.55e+06 M⁻¹ s⁻¹
B3 | 8.9 pM | 0.000452 s⁻¹ | 5.08e+07 M⁻¹ s⁻¹

Each binder was assayed against T2, hTSLP-His (human, UniProt Q969D9 29-159, limits assumed) (assay: competition ELISA, 7 nM TSLP-His pre-incubated with antibody; competitor Tezepelumab coated).
T2 construct: bought; also called hTSLP (ACROBiosystems TSP-H52Hb); not shown: His tag

Binder | IC50
B1 | 8440 pM
B2 | 5380 pM
B4 | 10100 pM
B3 | 6140 pM

These binders were tested against T3, recombinant human IL-13 (human, UniProt P35225 35-146) (assay: cell-based or functional assay).
T3 sequence (P35225 35-146 limits assumed): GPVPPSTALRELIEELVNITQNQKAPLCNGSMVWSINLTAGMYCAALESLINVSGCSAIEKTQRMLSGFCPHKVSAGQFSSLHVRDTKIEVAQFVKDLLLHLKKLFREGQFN

Binder | HEK-IL-13 [nM] (IC50, STAT6 reporter)
B5 | 0.0832 nM
B6 | 0.151 nM
B7 | 0.265 nM
B8 | 0.079 nM
B9 | 0.044 nM
B10 | 0.0646 nM
B11 | 0.029 nM
B12 | 0.0824 nM
B13 | 0.271 nM
B14 | 0.0523 nM
B15 | 0.0438 nM
B16 | 0.0174 nM
B17 | 0.0584 nM
B1 | 0.0562 nM
B2 | 0.0523 nM
B18 | 0.0804 nM
B19 | 0.044 nM
B20 | 0.0443 nM
B21 | 0.0943 nM
B4 | 0.0113 nM
B22 | 0.0664 nM
B23 | 0.0299 nM
B3 | 0.0801 nM
B24 | 0.0884 nM

Molecular target: T3, recombinant human IL-13
Assay: cell-based or functional assay
Remark: another data set of the same source

Binder | IC50 CD23
B1 | 52.7 pM
B2 | 14.9 pM
B20 | 70 pM
B4 | 162 pM
B3 | 121 pM

The binders below were run against T4, recombinant cynomolgus monkey IL-13 (cynomolgus monkey, UniProt Q0PW92 21-132) (assay: SPR).
T4 construct: bought; also called rc-IL-13; cIL-13
T4 sequence (Q0PW92 entry or part of it): as the sequence (P35225 35-146 limits assumed) above, with G1S, R10K, M42V, S67N, H83R, L100V counted along it

Binder | Kd | koff | kon
B1 | 38.9 pM | 0.00135 s⁻¹ | 3.46e+07 M⁻¹ s⁻¹
B2 | 102 pM | 0.00309 s⁻¹ | 3.02e+07 M⁻¹ s⁻¹
B3 | 36.7 pM | 0.00144 s⁻¹ | 3.94e+07 M⁻¹ s⁻¹

What follows are binders tested against T3, recombinant human IL-13 (assay: SPR).

Binder | Kd | koff | kon
B5 | 60.4 pM | 0.000216 s⁻¹ | 3.57e+06 M⁻¹ s⁻¹
B21 | 2.74 pM | 2.02e-05 s⁻¹ | 7.36e+06 M⁻¹ s⁻¹
B4 | 34.6 pM | 0.000205 s⁻¹ | 5.93e+06 M⁻¹ s⁻¹
B22 | 125 pM | 0.000455 s⁻¹ | 3.63e+06 M⁻¹ s⁻¹
B23 | 74.2 pM | 0.000427 s⁻¹ | 5.75e+06 M⁻¹ s⁻¹
B3 | 14.9 pM | 0.000103 s⁻¹ | 6.94e+06 M⁻¹ s⁻¹
B24 | 23.9 pM | 0.000138 s⁻¹ | 5.8e+06 M⁻¹ s⁻¹

What follows are binders tested against T5, human TSLP (human, UniProt Q969D9 29-159) (assay: SPR).
T5 construct: also called hTSLP; rhTSLP

Binder | Kd | koff | kon
B5 | 62.1 pM | 8.67e-05 s⁻¹ | 1.4e+06 M⁻¹ s⁻¹
B21 | 151 pM | 8.16e-05 s⁻¹ | 541000 M⁻¹ s⁻¹
B4 | 52.5 pM | 0.000257 s⁻¹ | 4.9e+06 M⁻¹ s⁻¹
B22 | 840 pM | 0.000532 s⁻¹ | 634000 M⁻¹ s⁻¹
B23 | 129 pM | 0.000298 s⁻¹ | 2.31e+06 M⁻¹ s⁻¹
B3 | 3.82 pM | 2.7e-05 s⁻¹ | 7.07e+06 M⁻¹ s⁻¹
B24 | 27.5 pM | 0.000237 s⁻¹ | 8.6e+06 M⁻¹ s⁻¹

Molecular target: T3, recombinant human IL-13
Assay: SPR
Remark: another data set of the same source

Binder | Kd | koff | kon
B13 | 507 pM | 0.00156 s⁻¹ | 3.07e+06 M⁻¹ s⁻¹
B1 | 7.78 pM | 4.76e-05 s⁻¹ | 6.12e+06 M⁻¹ s⁻¹
B2 | 32.1 pM | 0.000176 s⁻¹ | 5.49e+06 M⁻¹ s⁻¹
B18 | 15.7 pM | 6.7e-05 s⁻¹ | 4.27e+06 M⁻¹ s⁻¹
B19 | 8.47 pM | 5.01e-05 s⁻¹ | 5.91e+06 M⁻¹ s⁻¹
B20 | 179 pM | 0.000356 s⁻¹ | 2e+06 M⁻¹ s⁻¹

Molecular target: T5, human TSLP
Assay: SPR
Remark: another data set of the same source

Binder | Kd | koff | kon
B13 | 8.58 pM | 4.17e-05 s⁻¹ | 4.86e+06 M⁻¹ s⁻¹
B1 | 25.5 pM | 0.000121 s⁻¹ | 4.76e+06 M⁻¹ s⁻¹
B2 | 9.07 pM | 3.86e-05 s⁻¹ | 4.25e+06 M⁻¹ s⁻¹
B18 | 964 pM | 0.00043 s⁻¹ | 446000 M⁻¹ s⁻¹
B19 | 991 pM | 0.000427 s⁻¹ | 431000 M⁻¹ s⁻¹
B20 | 0.0746 pM | 2.85e-07 s⁻¹ | 3.82e+06 M⁻¹ s⁻¹

What follows are binders tested against T2, hTSLP-His (assay: cell-based or functional assay).

Binder | IC50 [pM], STAT5 phosphorylation inhibition in MUTZ5 cells
B5 | 0.507 pM
B7 | 0.232 pM
B13 | 32 pM
B16 | 830 pM
B2 | 0.0048 pM
B18 | 0.688 pM
B19 | 0.143 pM
B21 | 0.508 pM
B22 | 300 pM
B23 | 0.295 pM
B3 | 0.363 pM
B24 | 68.8 pM
